{"source": "patent US20190135872A1", "key": {"[1]": {"target": "+N332 N276Q/N360Q/N463Q (HIV-1 16055 (Indian subtype C))", "assay": "BLI, trimer on anti-His sensor, Fab analyte"}, "[2]": {"target": "+N332 N276Q/N360Q/N463Q/N301Q (HIV-1 16055 (Indian subtype C))", "assay": "BLI, trimer on anti-His sensor, Fab analyte"}, "[3]": {"target": "+N332 N301Q (HIV-1 16055 (Indian subtype C))", "assay": "BLI, trimer on anti-His sensor, Fab analyte"}, "[4]": {"target": "N276Q/N463Q trimer (PT backbone) (HIV-1 16055 (Indian subtype C))", "assay": "BLI, trimer on anti-His sensor, Fab analyte"}, "[5]": {"target": "+N332 N276Q/N360Q/N463Q/N301Q (HIV-1 16055 (Indian subtype C))", "assay": "negative-stain EM, 2D classes of trimer-Fab complexes"}, "[6]": {"target": "+N332 PT (HIV-1 16055 (Indian subtype C))", "assay": "negative-stain EM, 2D classes of trimer-Fab complexes"}, "[7]": {"target": "+N332 N276Q/N360Q/N463Q (HIV-1 16055 (Indian subtype C))", "assay": "BLI (Octet): trimer on anti-His sensor, Fab in solution, 1:1 global fit"}, "[8]": {"target": "+N332 N276Q/N360Q/N463Q/N301Q (HIV-1 16055 (Indian subtype C))", "assay": "BLI (Octet): trimer on anti-His sensor, Fab in solution, 1:1 global fit"}, "[9]": {"target": "+N332 N301Q (HIV-1 16055 (Indian subtype C))", "assay": "BLI (Octet): trimer on anti-His sensor, Fab in solution, 1:1 global fit"}, "[10]": {"target": "+N332 PT (HIV-1 16055 (Indian subtype C))", "assay": "BLI (Octet): trimer on anti-His sensor, Fab in solution, 1:1 global fit"}, "[11]": {"target": "16055 NFL TD CC (T569G) (HIV-1 16055 (Indian subtype C))", "assay": "BLI (Octet): trimer on anti-His sensor, Fab in solution, 1:1 global fit"}, "[12]": {"target": "N276Q/N463Q trimer (PT backbone) (HIV-1 16055 (Indian subtype C))", "assay": "BLI (Octet): trimer on anti-His sensor, Fab in solution, 1:1 global fit"}}}
{"substance": "VRC03 Fab", "values": [{"measurement": "fold difference in affinity vs +N332 PT", "setting": "[1]", "result": 10, "unit": "fold"}, {"measurement": "fold difference in affinity vs +N332 PT", "setting": "[2]", "result": 8, "unit": "fold"}, {"measurement": "fold lower binding vs +N332 PT", "setting": "[3]", "result": 2, "unit": "fold"}, {"measurement": "fold more efficient recognition vs PT", "setting": "[4]", "result": 30, "unit": "fold"}, {"measurement": "share of trimers unliganded", "setting": "[5]", "result": 22, "unit": "%"}, {"measurement": "share of trimers with 1 Fab", "setting": "[5]", "result": 23, "unit": "%"}, {"measurement": "share of trimers with 2 Fabs", "setting": "[5]", "result": 30, "unit": "%"}, {"measurement": "share of trimers with 3 Fabs", "setting": "[5]", "result": 25, "unit": "%"}, {"measurement": "share of trimers unliganded", "setting": "[6]", "result": 19, "unit": "%"}, {"measurement": "share of trimers with 1 Fab", "setting": "[6]", "result": 20, "unit": "%"}, {"measurement": "share of trimers with 2 Fabs", "setting": "[6]", "result": 34, "unit": "%"}, {"measurement": "share of trimers with 3 Fabs", "setting": "[6]", "result": 27, "unit": "%"}, {"measurement": "Kd", "setting": "[7]", "result": 12.9, "unit": "nM"}, {"measurement": "koff", "setting": "[7]", "result": 0.000739, "unit": "s⁻¹"}, {"measurement": "kon", "setting": "[7]", "result": 57100, "unit": "M⁻¹ s⁻¹"}, {"measurement": "Kd", "setting": "[8]", "result": 16.4, "unit": "nM"}, {"measurement": "koff", "setting": "[8]", "result": 0.00124, "unit": "s⁻¹"}, {"measurement": "kon", "setting": "[8]", "result": 75400, "unit": "M⁻¹ s⁻¹"}, {"measurement": "Kd", "setting": "[9]", "result": 270, "unit": "nM"}, {"measurement": "koff", "setting": "[9]", "result": 0.0037, "unit": "s⁻¹"}, {"measurement": "kon", "setting": "[9]", "result": 13700, "unit": "M⁻¹ s⁻¹"}, {"measurement": "Kd", "setting": "[10]", "result": 131, "unit": "nM"}, {"measurement": "koff", "setting": "[10]", "result": 0.00204, "unit": "s⁻¹"}, {"measurement": "kon", "setting": "[10]", "result": 15600, "unit": "M⁻¹ s⁻¹"}, {"measurement": "Kd", "setting": "[11]", "result": 241, "unit": "nM"}, {"measurement": "koff", "setting": "[11]", "result": 0.0026, "unit": "s⁻¹"}, {"measurement": "kon", "setting": "[11]", "result": 10800, "unit": "M⁻¹ s⁻¹"}, {"measurement": "Kd", "setting": "[12]", "result": 8.6, "unit": "nM"}, {"measurement": "koff", "setting": "[12]", "result": 0.000505, "unit": "s⁻¹"}, {"measurement": "kon", "setting": "[12]", "result": 58700, "unit": "M⁻¹ s⁻¹"}]}
